The labels stand for the following.
B1: AAD-COUP-TFII-LBD V224A (domain or fragment, UniProt P24468 144-414, looked up)
chain: MRREAVQRGRMPPTQPTHGQFALTNGDPLNCHSYLSGYISLLLRAEPYPTSRFGSQCMQPNNIMGIENICELAARMLFSAAEWARNIPFFPDLQITDQVALLRLTWSELFVLNAAQCSMPLHVAPLLAAAGLHASPMSADRVVAFMDHIRIFQEQVEKLKALHVDSAEYSCLKAIVLFTSDACGLSDVAHVESLQEKSQCALEEYVRSQYPNQPTRFGKLLLRLPSLRTVSSSVIEQLFFVRLVGKTPIETLIRDMLLSGSSFNWPYMAIQ
notes: expressed at a 2-fold lower level than the other constructs of the series; also called V224A mutant; source: yeast two-hybrid fusion (S. cerevisiae L40)
B2: AAD-EAR2-LBD-(121–399) (domain or fragment)
chain: MRKEAVQRGRIPHSLPGAVAASSGSPPGSALAAVASGGDLFPGQPVSELIAQLLRAEPYPAAAGRFGAGGGAAGAVLGIDNVCELAARLLFSTVEWARHAPFFPELPVADQVALLRLSWSELFVLNAAQAALPLHTAPLLAAAGLHAAPMAAERAVAFMDQVRAFQEQVDKLGRLQVDSAEYGCLKAIALFTPDACGLSDPAHVESLQEKAQVALTEYVRAQYPSQPQRFGRLLLRLPALRAVPASLISQLFFMRLVGKTPIETLIRDMLLSGSTFNWP
B3: AAD-COUP-TFII-LBD-(144–414) (domain or fragment)
chain: MRREAVQRGRMPPTQPTHGQFALTNGDPLNCHSYLSGYISLLLRAEPYPTSRFGSQCMQPNNIMGIENICELAARMLFSAVEWARNIPFFPDLQITDQVALLRLTWSELFVLNAAQCSMPLHVAPLLAAAGLHASPMSADRVVAFMDHIRIFQEQVEKLKALHVDSAEYSCLKAIVLFTSDACGLSDVAHVESLQEKSQCALEEYVRSQYPNQPTRFGKLLLRLPSLRTVSSSVIEQLFFVRLVGKTPIETLIRDMLLSGSSFNWPYMAIQ

One assay deals with AAD-LRH-1-LBD-(133–495) (UniProt O00482). Description: yeast two-hybrid. The note with it: parent: est. 1100; read off a plot.
Sequence of AAD-LRH-1-LBD-(133–495) (O00482 133-495): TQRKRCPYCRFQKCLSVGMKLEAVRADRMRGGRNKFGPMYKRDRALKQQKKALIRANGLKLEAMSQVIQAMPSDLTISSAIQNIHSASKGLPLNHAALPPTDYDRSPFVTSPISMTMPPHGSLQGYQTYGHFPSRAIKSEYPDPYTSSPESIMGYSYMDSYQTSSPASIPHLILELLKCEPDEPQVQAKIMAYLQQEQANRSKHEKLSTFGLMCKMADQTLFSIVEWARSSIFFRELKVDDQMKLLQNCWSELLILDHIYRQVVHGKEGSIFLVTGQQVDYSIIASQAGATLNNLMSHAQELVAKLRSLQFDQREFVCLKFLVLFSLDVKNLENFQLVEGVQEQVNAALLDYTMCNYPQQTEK
Turning to LexA-NSD1-(790–818) D812A, the response is 660 nmol/mg/min. On to LexA-NSD1-(790–818) F803A, for which the response worked out at 310 nmol/mg/min. Same read-out and setting: in the case of LexA-NSD1-(790–818) K802A it was 1300 nmol/mg/min; in that of LexA-NSD1-(790–818) K811A, 710 nmol/mg/min; in that of LexA-NSD1-(790–818) L806A, 0 nmol/mg/min. Same read-out and setting: in the case of LexA-NSD1-(790–818) L807A it was 470 nmol/mg/min; in that of LexA-NSD1-(790–818) L810A, 0 nmol/mg/min; in that of LexA-NSD1-(790–818) M808A, 900 nmol/mg/min.

With LexA-NSD1-(790–818) M809A, the response stood at 0 nmol/mg/min. As for LexA-NSD1-(790–818) S804A, the response came to 0 nmol/mg/min.

In the case of LexA-NSD1-(790–818) Y801A, the response came to 690 nmol/mg/min.

A further assay concerns the target T1, LexA-COUP-TFII-LBD-(144–414) (UniProt P24468 144-414).
T1 construct: the bait copy of the LBD in the dimer assay; same residues as m19; also called wild-type COUP-TFII LBD; full-length LBD; source: yeast two-hybrid fusion (S. cerevisiae L40)
T1 sequence (looked up): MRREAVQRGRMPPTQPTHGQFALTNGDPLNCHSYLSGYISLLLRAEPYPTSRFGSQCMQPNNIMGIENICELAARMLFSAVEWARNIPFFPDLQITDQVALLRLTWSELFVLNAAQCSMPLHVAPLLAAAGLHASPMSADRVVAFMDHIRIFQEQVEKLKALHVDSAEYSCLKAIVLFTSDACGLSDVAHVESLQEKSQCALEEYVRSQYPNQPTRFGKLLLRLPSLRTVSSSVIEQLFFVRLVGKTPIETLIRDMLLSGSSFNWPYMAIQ
Description: two-hybrid; S. cerevisiae L40; LexA DBD fusion with VP16 AAD-NR fusion; β-galactosidase activity in cell-free extracts; vehicle only or no ligand. To be noted: partners not purified.
As for B1, the “fold reduction of reporter activation due to homodimer formation” value was roughly 2.5 fold.

For a further assay, the target named is LexA-BCL11A RID1 F315A (UniProt Q9H165). Described as above.
Settings: not given
As for B2, the fold lower reporter activation than wild-type RID1 stood at 2 fold.

A further assay deals with LexA-BCL11A RID1 R320A (UniProt Q9H165). Described as above.
Settings: not given
B3 yielded a fold lower reporter activity than wild-type RID1 of 5 fold.

For another assay, the target named is LexA-BCL11A RID1 R317A (UniProt Q9H165). The description is as above.
Settings: not given
Regarding B3, the fold lower reporter activity than wild-type RID1 was found to be 5 fold.

These data come from publication PMC3834829, “A signature motif mediating selective interactions of BCL11A with the NR2E/F subfamily of orphan nuclear receptors” (Nucleic Acids Research, 2013).
